Results on one substance are retold here after publication PMC7530023.

The target in this assay is unmodified (unphosphorylated) recombinant tau, human 1N4R isoform (human). As to the kind of experiment: thioflavin S fluorescence aggregation assay.

Regarding “unmodified (unphosphorylated) recombinant tau, human 1N4R isoform (natural protein)”, the net increase of ThS fluorescence (9 μM tau) (units of ThS fluorescence) was determined as 41 and the net increase of ThS fluorescence (18 μM tau) (units of ThS fluorescence) came to 54.
